Assay results reported in the supplement of paper PMC11908140.

B1: library; numbered along this chain (parent)
chain: MRKPRAAVGSGHRKQAASQEGRQKHAKNNSQAKPSACDGLARQPEEVVLQASVSSYHLFRDVAEVTAFRGSLLSWYDQEKRDLPWRRRAEDEMDLDRRAYAVWVSEVMLQQTQVATVINYYTGWMQKWPTLQDLASASLEEVNQLWAGLGYYSRGRRLQEGARKVVEELGGHMPRTAETLQQLLPGVGRYTAGAIASIAFGQATGVVDGNVARVLCRVRAIGADPSSTLVSQQLWGLAQQLVDPARPGDFNQAAMELGATVCTPQRPLCSQCPVESLCRARQRVEQEQLLASGSLSGSPDVEECAPNTGQCHLCLPPSEPWDQTLGVVNFPRKASRKPPREESSATCVLEQPGALGAQILLVQRPNSGLLAGLWEFPSVTWEPSEQLQRKALLQELQRWAGPLPATHLRHLGEVVHTFSHIKLTYQVYGLALEGQTPVTTVPPGARWLTQEEFHTAAVSTAMKKVFRVYQGQQPGTCMGSKRSQVSSPCSRKKPRMGQQVLDNFFRSHISTDAHSLNSAAQ

Variants of: B1
Assay: 8OG:A repair function score (normalized; synonymous = 0, nonsense = -1) (normalized log-likelihood score); higher = more repair activity (WT-like)
Conditions: with 8OG:A DNA repair reporter (GFP) in HEK-293 MUTYH KO cells
Summary of the method: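 MUTYH knockout HEK-293 cells carrying lentiviral MUTYH cDNA NNN codon-scan libraries were grown with 10 pg/ml doxycycline and co-transfected with mCherry and a GFP reporter of 8OG:A repair. Viable mCherry+ cells were sorted at 72 h into GFP+ (repair) and GFP− bins, with three replicates per tile, and tile amplicons were sequenced. Rosace fitness scores for each tile were turned into a normalized repair function score anchored on the synonymous and nonsense distributions. Synonymous medians were set to 0 and nonsense medians to -1, and variants below 300 counts per million at the start were dropped.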

| Variant | 8OG:A repair function score |
| --- | --- |
| MRKPRAAVGSGHRKQAASQEGRQKHAKNNSQAKPSACDGLARQPEEVVLQASVSSYHLFRDVAEVTAFRGSLLSWYDQEKRDLPWRRRAEDEMDLDRRAYAVWVSEVMLQQTQVATVINYYTGWMQKWPTLQDLASASLEEVNQLWAGLGYYSRGRRLQEGARKVVEELGGHMPRTAETLQQLLPGVGRYTAGAIASIAFGQATGVVDGNVARVLCRVRAIGADPSSTLVSQQLWGLAQQLVDPARPGDFNQAAMELGATVCTPQRPLCSQCPVESLCRARQRVEQEQLLASGSLSGSQDVEECAPNTGQCHLCLPPSEPWDQTLGVVNFPRKASRKPPREESSATCVLEQPGALGAQILLVQRPNSGLLAGLWEFPSVTWEPSEQLQRKALLQELQRWAGPLPATHLRHLGEVVHTFSHIKLTYQVYGLALEGQTPVTTVPPGARWLTQEEFHTAAVSTAMKKVFRVYQGQQPGTCMGSKRSQVSSPCSRKKPRMGQQVLDNFFRSHISTDAHSLNSAAQ [P299Q] | -0.00604 |
| MRKPRAAVGSGHRKQAASQEGRQKHAKNNSQAKPSACDGLARQPEEVVLQASVSSYHLFRDVAEVTAFRGSLLSWYDQEKRDLPWRRRAEDEMDLDRRAYAVWVSEVMLQQTQVATVINYYTGWMQKWPTLQDLASASLEEVNQLWAGLGYYSRGRRLQEGARKVVEELGGHMPRTAETLQQLLPGVGRYTAGAIASIAFGQATGVVDGNVARVLCRVRAIGADPSSTLVSQQLWGLAQQLVDPARPGDFNQAAMELGATVCTPQRPLCSQCPVESLCRARQRVEQEQLLASGSLSGSIDVEECAPNTGQCHLCLPPSEPWDQTLGVVNFPRKASRKPPREESSATCVLEQPGALGAQILLVQRPNSGLLAGLWEFPSVTWEPSEQLQRKALLQELQRWAGPLPATHLRHLGEVVHTFSHIKLTYQVYGLALEGQTPVTTVPPGARWLTQEEFHTAAVSTAMKKVFRVYQGQQPGTCMGSKRSQVSSPCSRKKPRMGQQVLDNFFRSHISTDAHSLNSAAQ [P299I] | -0.00528 |
| MRKPRAAVGSGHRKQAASQEGRQKHAKNNSQAKPSACDGLARQPEEVVLQASVSSYHLFRDVAEVTAFRGSLLSWYDQEKRDLPWRRRAEDEMDLDRRAYAVWVSEVMLQQTQVATVINYYTGWMQKWPTLQDLASASLEEVNQLWAGLGYYSRGRRLQEGARKVVEELGGHMPRTAETLQQLLPGVGRYTAGAIASIAFGQATGVVDGNVARVLCRVRAIGADPSSTLVSQQLWGLAQQLVDPARPGDFNQAAMELGATVCTPQRPLCSQCPVESLCRARQRVEQEQLLASGSLSGSRDVEECAPNTGQCHLCLPPSEPWDQTLGVVNFPRKASRKPPREESSATCVLEQPGALGAQILLVQRPNSGLLAGLWEFPSVTWEPSEQLQRKALLQELQRWAGPLPATHLRHLGEVVHTFSHIKLTYQVYGLALEGQTPVTTVPPGARWLTQEEFHTAAVSTAMKKVFRVYQGQQPGTCMGSKRSQVSSPCSRKKPRMGQQVLDNFFRSHISTDAHSLNSAAQ [P299R] | -0.000753 |
| MRKPRAAVGSGHRKQAASQEGRQKHAKNNSQAKPSACDGLARQPEEVVLQASVSSYHLFRDVAEVTAFRGSLLSWYDQEKRDLPWRRRAEDEMDLDRRAYAVWVSEVMLQQTQVATVINYYTGWMQKWPTLQDLASASLEEVNQLWAGLGYYSRGRRLQEGARKVVEELGGHMPRTAETLQQLLPGVGRYTAGAIASIAFGQATGVVDGNVARVLCRVRAIGADPSSTLVSQQLWGLAQQLVDPARPGDFNQAAMELGATVCTPQRPLCSQCPVESLCRARQRVEQEQLLASGSLSGSLDVEECAPNTGQCHLCLPPSEPWDQTLGVVNFPRKASRKPPREESSATCVLEQPGALGAQILLVQRPNSGLLAGLWEFPSVTWEPSEQLQRKALLQELQRWAGPLPATHLRHLGEVVHTFSHIKLTYQVYGLALEGQTPVTTVPPGARWLTQEEFHTAAVSTAMKKVFRVYQGQQPGTCMGSKRSQVSSPCSRKKPRMGQQVLDNFFRSHISTDAHSLNSAAQ [P299L] | -0.0164 |
| MRKPRAAVGSGHRKQAASQEGRQKHAKNNSQAKPSACDGLARQPEEVVLQASVSSYHLFRDVAEVTAFRGSLLSWYDQEKRDLPWRRRAEDEMDLDRRAYAVWVSEVMLQQTQVATVINYYTGWMQKWPTLQDLASASLEEVNQLWAGLGYYSRGRRLQEGARKVVEELGGHMPRTAETLQQLLPGVGRYTAGAIASIAFGQATGVVDGNVARVLCRVRAIGADPSSTLVSQQLWGLAQQLVDPARPGDFNQAAMELGATVCTPQRPLCSQCPVESLCRARQRVEQEQLLASGSLSGSMDVEECAPNTGQCHLCLPPSEPWDQTLGVVNFPRKASRKPPREESSATCVLEQPGALGAQILLVQRPNSGLLAGLWEFPSVTWEPSEQLQRKALLQELQRWAGPLPATHLRHLGEVVHTFSHIKLTYQVYGLALEGQTPVTTVPPGARWLTQEEFHTAAVSTAMKKVFRVYQGQQPGTCMGSKRSQVSSPCSRKKPRMGQQVLDNFFRSHISTDAHSLNSAAQ [P299M] | -0.0166 |
| MRKPRAAVGSGHRKQAASQEGRQKHAKNNSQAKPSACDGLARQPEEVVLQASVSSYHLFRDVAEVTAFRGSLLSWYDQEKRDLPWRRRAEDEMDLDRRAYAVWVSEVMLQQTQVATVINYYTGWMQKWPTLQDLASASLEEVNQLWAGLGYYSRGRRLQEGARKVVEELGGHMPRTAETLQQLLPGVGRYTAGAIASIAFGQATGVVDGNVARVLCRVRAIGADPSSTLVSQQLWGLAQQLVDPARPGDFNQAAMELGATVCTPQRPLCSQCPVESLCRARQRVEQEQLLASGSLSGSKDVEECAPNTGQCHLCLPPSEPWDQTLGVVNFPRKASRKPPREESSATCVLEQPGALGAQILLVQRPNSGLLAGLWEFPSVTWEPSEQLQRKALLQELQRWAGPLPATHLRHLGEVVHTFSHIKLTYQVYGLALEGQTPVTTVPPGARWLTQEEFHTAAVSTAMKKVFRVYQGQQPGTCMGSKRSQVSSPCSRKKPRMGQQVLDNFFRSHISTDAHSLNSAAQ [P299K] | -0.0515 |
